Source: article PMC5062617, “Nop9 is a PUF-like protein that prevents premature cleavage to correctly process pre-18S rRNA”
Changes are numbered by the printed parent chain. In names and notes the source's numbering stands.

Key:
Test in all cases: EMSA; EMSA: 10 mM HEPES, 150 mM NaCl, 0.01% Tween-20, 0.1 mg/ml BSA, 1 mM TCEP, 4 °C, 40 min; RNA <50 pM
Nop9 (46-645) [1] = biological target: T1, Nop9 (46-645) (Saccharomyces cerevisiae, UniProt P47077 46-645); settings: protein: recombinant, tags: none (SUMO cleaved), hairpin
T1 sequence: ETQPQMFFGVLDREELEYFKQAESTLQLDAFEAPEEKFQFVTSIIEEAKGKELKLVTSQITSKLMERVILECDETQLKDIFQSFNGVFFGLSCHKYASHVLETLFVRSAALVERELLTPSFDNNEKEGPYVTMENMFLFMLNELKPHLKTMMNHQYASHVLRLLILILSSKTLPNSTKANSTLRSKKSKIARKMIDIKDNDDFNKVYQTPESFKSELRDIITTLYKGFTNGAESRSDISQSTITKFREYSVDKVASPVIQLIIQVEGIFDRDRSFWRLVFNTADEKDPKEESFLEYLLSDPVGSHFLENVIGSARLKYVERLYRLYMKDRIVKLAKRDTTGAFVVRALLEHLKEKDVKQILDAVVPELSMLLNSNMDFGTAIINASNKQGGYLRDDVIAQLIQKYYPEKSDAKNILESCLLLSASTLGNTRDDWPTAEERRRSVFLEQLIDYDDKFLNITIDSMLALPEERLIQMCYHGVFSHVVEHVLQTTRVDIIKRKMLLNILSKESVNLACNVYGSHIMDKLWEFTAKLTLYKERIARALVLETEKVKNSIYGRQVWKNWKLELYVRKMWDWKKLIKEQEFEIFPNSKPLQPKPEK

Nop9 (46-645) [2] = biological target: T1, Nop9 (46-645); settings: protein: recombinant; tags: none (SUMO cleaved); label: 5' 32P; hairpin, 5' flank
Nop9 full-length = biological target: T2, Nop9 full-length (Saccharomyces cerevisiae, UniProt P47077 1-666); settings: protein: recombinant; tags: none (SUMO cleaved); label: 5' 32P; hairpin, 5' flank
T2 sequence: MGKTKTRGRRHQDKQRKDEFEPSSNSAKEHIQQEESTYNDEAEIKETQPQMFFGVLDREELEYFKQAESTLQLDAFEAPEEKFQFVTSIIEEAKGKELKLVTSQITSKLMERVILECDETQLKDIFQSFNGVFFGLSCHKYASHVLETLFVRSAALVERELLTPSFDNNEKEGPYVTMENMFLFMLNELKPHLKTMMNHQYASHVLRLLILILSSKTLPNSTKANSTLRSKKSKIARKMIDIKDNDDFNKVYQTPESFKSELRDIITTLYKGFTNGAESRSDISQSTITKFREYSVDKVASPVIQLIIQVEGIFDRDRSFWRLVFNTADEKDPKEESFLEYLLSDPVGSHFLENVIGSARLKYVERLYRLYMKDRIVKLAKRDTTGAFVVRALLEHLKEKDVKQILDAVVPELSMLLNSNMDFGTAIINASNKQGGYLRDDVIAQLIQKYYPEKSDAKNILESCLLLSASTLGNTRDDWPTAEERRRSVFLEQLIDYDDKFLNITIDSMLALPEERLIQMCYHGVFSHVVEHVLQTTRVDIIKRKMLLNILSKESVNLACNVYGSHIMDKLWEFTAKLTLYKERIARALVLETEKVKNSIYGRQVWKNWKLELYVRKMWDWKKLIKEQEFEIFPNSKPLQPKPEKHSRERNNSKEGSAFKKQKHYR

Nop9 (46-645) [3] = biological target: T1, Nop9 (46-645); settings: protein: recombinant; tags: none (SUMO cleaved); label: 5' 32P; hairpin, 5' flank; remark: listed apart in the source

B1: ITS1 Subdomain B (39-77_140-183) (structured_RNA)
RNA: GGUGGCAAGAGCAUGAGAGCUUUUACUGGGCAAGAAGACAAUUUCUUGCUAUUCCAAACGGUGAGAGAUUUCUGUGCUUUUGUUA
- Kd (Nop9 (46-645) [1]; label: 5' 32P): 105 ± 2.9 nM

B2: V: U-G pairs at stem base (structured_RNA)
RNA: UUUAAUAAUUUUGAAAAUGGAUUUUUUUGUUUUAUAGGACAAUUAAAACCGUUUCGG
- binding signal (Nop9 (46-645) [2]): ~3 fold Kd vs A Δ5'1-6,Δ3'

B3: ITS1 Subdomain C (77-140) (structured_RNA)
RNA: GGAGAGAUGGAGAGUCCAGCCGGGCCUGCGCUUAAGUGCGCGGUCUUGCUAGGCUUGUAAGUUUCU
- Kd (Nop9 (46-645) [1]; label: 5' 32P): 74.4 ± 4.1 nM

B4: Subdomain A Δ5'1-6, Δ3' (structured_RNA)
RNA: GGUUUAAUAAUUUUGAAAAUGGAUUUUUUUGUUUUAUAGGACAAUUAAAACCGUUUCAA
- Kd (Nop9 (46-645) [1]; label: 5' 32P, 5' flank): 11.8 ± 0.4 nM
- Kd (Nop9 full-length): 10.1 ± 1 nM

B5: I: UUU(16-18)GGC, AA(205-206)GC (structured_RNA)
RNA: B4 RNA with U12G, U13G, U14C, A58G, A59C
- Kd (Nop9 (46-645) [1]; label: 5' 32P, 5' flank): 103 ± 12 nM

B6: U16A (structured_RNA)
RNA: B4 RNA with U12A
- Kd (Nop9 (46-645) [1]; label: 5' 32P, 5' flank): 62.3 ± 4.9 nM

B7: AAU(10-12)CCC, A Δ5'1-6, Δ3' (structured_RNA)
RNA: B4 RNA with A6C, A7C, U8C
- Kd (Nop9 (46-645) [1]; label: 5' 32P, 5' flank): 8.5 ± 0.6 nM

B8: AAU(13-15)CCC, A Δ5'1-6, Δ3' (structured_RNA)
RNA: B4 RNA with A9C, A10C, U11C
- Kd (Nop9 (46-645) [1]; label: 5' 32P, 5' flank): 27.6 ± 3.7 nM

B9: III: UU(17-18)GC, AA(205-206)GC (structured_RNA)
RNA: B4 RNA with U13G, U14C, A58G, A59C
- binding signal (Nop9 (46-645) [3]): ~4 fold Kd vs A Δ5'1-6,Δ3'

B10: II: U16G (structured_RNA)
RNA: B4 RNA with U12G
- Kd (Nop9 (46-645) [1]; label: 5' 32P, 5' flank): 47.7 ± 1.8 nM

B11: IV: stem base strands reversed (UUG17-19AAC, CAA204-206GUU) (structured_RNA)
RNA: B4 RNA with U13A, U14A, G15C, C57G, A58U, A59U
- binding result (Nop9 (46-645) [1]; label: 5' 32P, 5' flank): binds

B12: nt 20-22 mutant, pairing kept (structured_RNA)
RNA: B4 RNA with A16C, A17C, A18C, U54G, U55G, U56G
- binding result (Nop9 (46-645) [1]; label: 5' 32P, 5' flank): binds

B13: UUU(7-9)GGG, A Δ5'1-6, Δ3' (structured_RNA)
RNA: B4 RNA with U3G, U4G, U5G
- Kd (Nop9 (46-645) [1]; label: 5' 32P, 5' flank): 6.6 ± 0.3 nM

B14: Subdomain A Δ5'1-12, Δ3' (structured_RNA)
RNA: GGAAUUUUGAAAAUGGAUUUUUUUGUUUUAUAGGACAAUUAAAACCGUUUCAA
- Kd (Nop9 (46-645) [1]; label: 5' 32P, 5' flank): 18.2 ± 1.9 nM

Binder: GGUUUGAAAAUGGAUUUUUUUGUUUUAUAGGACAAUUAAAACCGUUUCAA (structured_RNA) [Subdomain A Δ5'1-15, Δ3']
- Kd (Nop9 (46-645) [1]; label: 5' 32P): 346 ± 40 nM

B15: nt 27-30 mutant, pairing kept (structured_RNA)
RNA: GGUUUAAUAAUUUUGAAAAUGGGCGCUUUUGUUUUAUAGGACAAUUGCGCCCGUUUCAA
- binding result (Nop9 (46-645) [1]; label: 5' 32P, 5' flank): binds

B16: Subdomain A Δ3' (structured_RNA)
RNA: GGAAGAAAUUUAAUAAUUUUGAAAAUGGAUUUUUUUGUUUUAUAGGACAAUUAAAACCGUUUCAA
- Kd (Nop9 (46-645) [1]; label: 5' 32P, 5' flank): 15.7 ± 2.6 nM

B17: ITS1 Subdomain A (1-38_184-212) (structured_RNA)
RNA: GGAAGAAAUUUAAUAAUUUUGAAAAUGGAUUUUUUUGUUUUAUAGGACAAUUAAAACCGUUUCAAUACAAC
- Kd (Nop9 (46-645) [1]; label: 5' 32P (EMSA), 5' and 3' single-stranded flanks): 2.4 ± 0.3 nM
